Patent publication US20210140973A1 (NITTO BOSEKI, published 2021)
Residue numbers refer to the chain shown, from its start.

Experiments:
Test in all cases: Western blot: E. coli lysate with the GST-tagged peptide, SDS-PAGE, PVDF membrane, POD-labelled antibody diluted 1000-fold, ECL
[1] = target: T1, GST-tagged peptide H1 (full-length human IgG4 heavy chain constant region) (human, UniProt P01861 1-325 = IgG part)
T1 construct: Expressed in E. coli BL21; lysate, reduced and heat-denatured, on SDS-PAGE / Western blot; not shown: GST tag (glutathione S-transferase) linked to the N terminal, expressed from vector pGEX-6P-1
Description: (§1) Based on the designed amino acid sequences, base sequences suitable for expressing protein in E. coli were designed according to the protocol of GenScript Corporation, thereby preparing vector pGEX-6P-1 (GE Healthcare Bio-Sciences Corp.) to which the respective base sequences are inserted. The prepared expression plasmid was introduced to E. coli BL 21 strain, thereby obtaining a transformant. The transformant was cultured by an ordinary method and a protein expression was induced by IPTG. After the cells were collected by centrifugation, the cells were dissolved with an ordinary lysis solution, and subjected to ultrasonication. 6 μL of an SDS sample buffer solution was added to 6 μL of the obtained lysate. The respective prepared samples were subjected to a heat treatment at 95° C. for 5 minutes. 10 μL of the E. coli disrupted sample was added to each well of 5 to 20% electrophoresis gel (Atto Corportation) to which an SDS electrophoresis buffer solution was added. Similarly, a molecular weight standard (Bio-Rad Laboratories, Inc.) was added to each well and electrophoresed. After completing the electrophoresis, the electrophoresis gel was transcribed to a PVDF membrane (Millipore Corporation) with a transfer buffer solution. The PVDF membrane was immersed in a membrane blocking buffer solution, and then shaking was carried out at room temperature for 30 minutes. Amino groups of MaI4-08, MaI4-09, and MaI4-05-produced antibodies were subjected to a POD labeling treatment with a POD labeling kit (Dojindo Molecular Technologies, Inc.). The obtained labeled antibodies each were diluted 1000-fold by PBST. After the PVDF membrane was cleaned with PBST, the antibody solutions prepared each were added to the PVDF membrane, and then the reaction was performed at room temperature for 1 hour. After the PVDF membrane was cleaned by PBST, a signal was detected with ECL Prime Western Blotting Detection Reagents (GE Healthcare) with Image Quant Las4000.

[2] = target: T2, GST-tagged peptide H3 (positions 1 to 220 of the human IgG4 heavy chain constant region) (human, UniProt P01861 1-220 = IgG part)
T2 construct: E. coli lysate on Western blot; not shown: GST tag (glutathione S-transferase) linked to the N terminal, expressed from vector pGEX-6P-1
Description: as §1

[3] = target: T3, GST-tagged peptide H4 (positions 1 to 165 of the human IgG4 heavy chain constant region) (human, UniProt P01861 1-165 = IgG part)
T3 construct: E. coli lysate on Western blot; not shown: GST tag (glutathione S-transferase) linked to the N terminal, expressed from vector pGEX-6P-1
Description: as §1

[4] = target: T4, GST-tagged peptide H6 (positions 1 to 55 of the human IgG4 heavy chain constant region) (human, UniProt P01859 1-55 = IgG part)
T4 construct: E. coli lysate on Western blot; not shown: GST tag (glutathione S-transferase) linked to the N terminal, expressed from vector pGEX-6P-1
Description: as §1

[5] = target: T5, GST-tagged peptide H8 (positions 111 to 327 of the human IgG4 heavy chain constant region) (human, UniProt P01861 111-325 = IgG part)
T5 construct: E. coli lysate on Western blot; not shown: GST tag (glutathione S-transferase) linked to the N terminal, expressed from vector pGEX-6P-1
Description: as §1

[6] = target: T6, GST-tagged peptide H9 (positions 166 to 327 of the human IgG4 heavy chain constant region) (human, UniProt P01861 166-325 = IgG part)
T6 construct: E. coli lysate on Western blot; not shown: GST tag (glutathione S-transferase) linked to the N terminal, expressed from vector pGEX-6P-1
Description: as §1

[7] = target: T7, GST-tagged peptide H10 (positions 221 to 327 of the human IgG4 heavy chain constant region, CH3 region) (human, UniProt P01861 221-325 = IgG part)
T7 construct: E. coli lysate on Western blot; not shown: GST tag (glutathione S-transferase) linked to the N terminal, expressed from vector pGEX-6P-1
Description: as §1

[8] = target: T8, GST-tagged peptide H12 (positions 99 to 220 of the human IgG4 heavy chain constant region) (human, UniProt P01861 99-220 = IgG part)
T8 construct: E. coli lysate on Western blot; not shown: GST tag (glutathione S-transferase) linked to the N terminal, expressed from vector pGEX-6P-1
Description: as §1

[9] = target: T9, GST-tagged peptide H31 (H10 with arginine for glutamine at position 235) (human, UniProt P01861 221-325 = IgG part)
T9 construct: not shown: GST tag (glutathione S-transferase) linked to the N terminal, expressed from vector pGEX-6P-1
T9 chain: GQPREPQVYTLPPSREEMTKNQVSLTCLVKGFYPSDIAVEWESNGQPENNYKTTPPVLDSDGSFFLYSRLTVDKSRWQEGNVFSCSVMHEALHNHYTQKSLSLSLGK
Description: as §1

[10] = target: T10, GST-tagged peptide H33 (H10 with glutamine for glutamic acid at position 299) (human, UniProt P01861 221-325 = IgG part)
T10 construct: not shown: GST tag (glutathione S-transferase) linked to the N terminal, expressed from vector pGEX-6P-1
T10 chain: T9 chain with R15Q, E79Q
Description: as §1

[11] = target: T11, GST-tagged peptide H38 (H10 with R289K, E299Q and L325P) (human, UniProt P0DOX5 343-449 = IgG part)
T11 construct: not shown: N-terminal GST tag (from vector pGEX-6P-1) and any vector linker
T11 chain: T9 chain with R15Q, R69K, E79Q, L105P
Description: as §1

T5 sequence (P01861 other isoform, or with tags, fused parts or gaps): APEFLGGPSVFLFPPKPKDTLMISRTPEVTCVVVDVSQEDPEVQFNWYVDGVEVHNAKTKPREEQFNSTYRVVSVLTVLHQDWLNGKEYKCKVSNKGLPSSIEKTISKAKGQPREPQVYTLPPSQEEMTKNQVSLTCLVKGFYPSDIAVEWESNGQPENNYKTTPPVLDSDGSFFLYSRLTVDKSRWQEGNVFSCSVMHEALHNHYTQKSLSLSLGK
T2 sequence (P01861 1-220): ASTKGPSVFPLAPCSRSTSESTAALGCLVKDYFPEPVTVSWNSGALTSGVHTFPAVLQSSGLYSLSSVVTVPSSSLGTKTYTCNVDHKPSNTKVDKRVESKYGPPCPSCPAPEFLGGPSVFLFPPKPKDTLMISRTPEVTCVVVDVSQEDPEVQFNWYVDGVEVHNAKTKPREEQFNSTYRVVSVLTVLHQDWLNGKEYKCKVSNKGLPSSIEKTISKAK
T8 sequence (P01861 99-220): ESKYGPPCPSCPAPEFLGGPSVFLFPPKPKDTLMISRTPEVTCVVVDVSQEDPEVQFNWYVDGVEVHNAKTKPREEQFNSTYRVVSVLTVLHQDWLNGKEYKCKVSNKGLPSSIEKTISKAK
T6 sequence (P01861 other isoform, or with tags, fused parts or gaps): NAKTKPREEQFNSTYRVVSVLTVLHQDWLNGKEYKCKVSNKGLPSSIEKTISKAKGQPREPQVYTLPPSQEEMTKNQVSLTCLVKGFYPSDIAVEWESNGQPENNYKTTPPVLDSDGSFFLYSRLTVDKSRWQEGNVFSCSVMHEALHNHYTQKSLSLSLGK
T3 sequence (P01861 1-165): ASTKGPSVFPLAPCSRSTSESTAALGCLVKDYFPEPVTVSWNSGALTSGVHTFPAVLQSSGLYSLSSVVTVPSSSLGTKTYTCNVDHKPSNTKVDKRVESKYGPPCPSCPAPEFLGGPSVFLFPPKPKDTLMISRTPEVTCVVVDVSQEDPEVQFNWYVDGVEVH
T4 sequence (P01859 1-55): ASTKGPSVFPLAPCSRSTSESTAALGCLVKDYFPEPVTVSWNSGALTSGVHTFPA

B1: MaI4-08-produced antibody (antibody, IgG1, V domains shown)
VH: EVQLQQSGPELVKPGTSVKMSCKASGYIFTSYILHWVKQKPGQGLEWIAYINPYNDGTKYKEKFKGKGTLTSDKSSSTAYMELSSLTSEDSAVYYCARSGGGYGNYAWFAYWGPGTLVTVST
VL: DIQMTQSPSSLSASLGERVSLTCRASQDIGSSLNWLQQEPDGTIKRLIYATSSLDSGVPKRFSGSRSGSDYSLTISSLESEDFVDYYCLQYASYPPTFGAGTKLELK
notes: Purified on protein G from hybridoma culture supernatant; POD-labelled for the Western blots
- binding result [1]: binds
- binding result [2]: no binding
- binding result [3]: no binding
- binding result [4]: no binding
- binding result [5]: binds
- binding result [6]: binds
- binding result [7]: binds
- binding result [8]: no binding
- binding result [9]: binds
- binding result [10]: no binding
- binding result [11]: no binding
